Assay results reported in patent US20240084023A1 (NGM BIOPHARMACEUTICALS, published 2024).
Substitutions are numbered along the chain they refer to.

How the values were obtained:
[1] = target: T1, soluble human GCGR extracellular domain (human, UniProt P47871 26-136, limits assumed); assay: Octet epitope binning; antibody in solution on GCGR ECD held by immobilized 1A8 (competitor)
T1 construct: also called soluble GCGR
Description: (§1) KD values for exemplary antibodies were derived using ForteBio software. Exemplary antibodies 6B5, 13G19, 14E9, 14F4, 4F8, 1G7, l A8, I H7, 1A2, 1B4, 1C1, 1H2, 1C3, and 1D2 were immobilized on biosensor tips. Soluble human GCGR extracellular domain (500 nM) was incubated with the antibodies for 3 minutes. […] The biosensor tips with bound antibody-GCGR complex were then dipped in 61B5, 5B11, or 3H-15 antibody solution and the change in signal measured as a nm shift. If the antibody in solution recognized the same epitope as the antibody immobilized on the chip surface, then <0.1 nm shift in signal (noise level of Octet) would be observed. If the antibody in solution recognized a distinct epitope relative to the immobilized antibody, an increase in signal of >0.15 nm shift would be observed. In the latter scenario, the antibody in solution could bind to the immobilized antibody-GCGR complex (presumably to a different epitope) resulting in the observed increase in signal.

[2] = target: T1, soluble human GCGR extracellular domain; assay: Octet epitope binning; antibody in solution on GCGR ECD held by immobilized 14E9 (competitor)
Description: as §1

[3] = target: T1, soluble human GCGR extracellular domain; assay: Octet epitope binning; antibody in solution on GCGR ECD held by immobilized 1H7 (competitor)
Description: as §1

[4] = target: T1, soluble human GCGR extracellular domain; assay: Biacore SPR, captured antibody, soluble human GCGR extracellular domain as analyte
Description: In some experiments, supernatants were screened for binding to human GCGR using a Biacore SPR system. Briefly, anti-mouse Fc antibody (Sigma-Aldrich) was immobilized on all four flow cells of a CM5 chip using amine coupling reagents (GE Healthcare LifeSciences). Hybridoma supernatants were diluted three-fold with PBS-P buffer (PBS containing 0.005% P20) and injected for 30 seconds overflow cells 2, 3 and 4 to capture the test antibodies and using flow cell 1 as a reference. The next step was an injection of soluble human GCGR extracellular domain (100 nM in PBS-P buffer) at a flow rate of 50 μL/min and monitoring of the binding kinetics at 25° C. Kinetic data were collected over time and fit using the simultaneous global fit equation to yield affinity constants (KD values) for each antibody.

[5] = target: T1, soluble human GCGR extracellular domain; assay: Octet epitope binning; antibody in solution on GCGR ECD held by immobilized 1D2 (competitor)
Description: as §1

[6] = target: T1, soluble human GCGR extracellular domain; assay: Octet epitope binning; antibody in solution on GCGR ECD held by immobilized 14F4 (competitor)
Description: as §1

[7] = target: T1, soluble human GCGR extracellular domain; assay: Octet epitope binning; antibody in solution on GCGR ECD held by immobilized 13G9 (competitor)
Description: as §1

[8] = target: T1, soluble human GCGR extracellular domain; assay: Octet epitope binning; antibody in solution on GCGR ECD held by immobilized 1B4 (competitor)
Description: as §1

[9] = target: T1, soluble human GCGR extracellular domain; assay: Octet epitope binning; antibody in solution on GCGR ECD held by immobilized 1C1 (competitor)
Description: as §1

[10] = target: full-length human GCGR on CHO cells (human, UniProt P47871 26-477); assay: cell-based or functional assay
Sequence of full-length human GCGR on CHO cells (P47871 26-477): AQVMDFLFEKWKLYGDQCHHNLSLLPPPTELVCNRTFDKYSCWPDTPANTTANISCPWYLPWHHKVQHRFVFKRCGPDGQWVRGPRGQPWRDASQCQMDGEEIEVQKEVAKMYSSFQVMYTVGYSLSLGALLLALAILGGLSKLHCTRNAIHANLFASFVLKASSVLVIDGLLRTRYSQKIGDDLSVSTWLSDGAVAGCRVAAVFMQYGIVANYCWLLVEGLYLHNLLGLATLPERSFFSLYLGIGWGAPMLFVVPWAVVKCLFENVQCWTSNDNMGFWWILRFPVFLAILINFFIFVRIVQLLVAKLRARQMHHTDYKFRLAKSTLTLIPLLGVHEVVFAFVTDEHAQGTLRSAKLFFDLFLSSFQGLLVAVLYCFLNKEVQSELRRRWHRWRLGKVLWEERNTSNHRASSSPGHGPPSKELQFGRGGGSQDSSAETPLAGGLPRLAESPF

[11] = target: T1, soluble human GCGR extracellular domain; assay: Octet epitope binning; antibody in solution on GCGR ECD held by immobilized 4F8 (competitor)
Description: as §1

[12] = target: T1, soluble human GCGR extracellular domain; assay: Octet epitope binning; antibody in solution on GCGR ECD held by immobilized 1G7 (competitor)
Description: as §1

[13] = target: T1, soluble human GCGR extracellular domain; assay: Octet epitope binning; antibody in solution on GCGR ECD held by immobilized 1H2 (competitor)
Description: as §1

[14] = target: T1, soluble human GCGR extracellular domain; assay: Octet epitope binning; antibody in solution on GCGR ECD held by immobilized 1C3 (competitor)
Description: as §1

[15] = target: T1, soluble human GCGR extracellular domain; assay: Octet epitope binning; antibody in solution on GCGR ECD held by immobilized 6B5 (competitor)
Description: as §1

[16] = target: T1, soluble human GCGR extracellular domain; assay: Octet epitope binning; antibody in solution on GCGR ECD held by immobilized 1A2 (competitor)
Description: as §1

T1 sequence (P47871 26-136 limits assumed): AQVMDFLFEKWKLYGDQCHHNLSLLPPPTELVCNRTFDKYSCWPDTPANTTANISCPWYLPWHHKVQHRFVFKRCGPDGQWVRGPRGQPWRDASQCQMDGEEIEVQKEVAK

B1: anti-GCGR antibody 6B5 (antibody, V domains shown)
VH: QVQLQQSGTELVRPGTSVKISCKASGFTFTNHWLGWVKQRPGHGLEWIGDIYPGGYYINYNEKFKGKATLTADTSSSTAYMQLSSLTSEDSAVYFCARHTNYGSDYWGQGTTLTVSS
VL: DVLMTQIPLSLPVSLGDQASISCRSSQSIVDSYGNTFLEWYLQKPGQSPKLLIYKVSNRLSGVPDRFSGTGAGTDFTLKISRVEAEDLGIYYCFQGSHVPWTFGGGTKLEIK
notes: mouse hybridoma monoclonal antibody; also called 61B5
Shift on Octet by Antibody in Solution (nm) [1]: < 0.05 nm | Shift on Octet by Antibody in Solution (nm) [2]: < 0.05 nm | Shift on Octet by Antibody in Solution (nm) [3]: < 0.05 nm | Kd [4]: 0.22 nM | Shift on Octet by Antibody in Solution (nm) [5]: < 0.05 nm | Shift on Octet by Antibody in Solution (nm) [6]: < 0.05 nm | Shift on Octet by Antibody in Solution (nm) [7]: < 0.05 nm | Shift on Octet by Antibody in Solution (nm) [8]: < 0.05 nm | Shift on Octet by Antibody in Solution (nm) [9]: < 0.05 nm | cAMP assay-1 IC50 [10]: 6.42 nM | cAMP assay-2 IC50 [10]: 12.3 nM | cAMP assay-3 IC50 [10]: 2.07 nM | Shift on Octet by Antibody in Solution (nm) [11]: < 0.05 nm | Shift on Octet by Antibody in Solution (nm) [12]: < 0.05 nm | Shift on Octet by Antibody in Solution (nm) [13]: < 0.05 nm | Shift on Octet by Antibody in Solution (nm) [14]: < 0.05 nm | Shift on Octet by Antibody in Solution (nm) [15]: < 0.05 nm | Shift on Octet by Antibody in Solution (nm) [16]: < 0.05 nm

B2: anti-GCGR antibody 5B11 (antibody, V domains shown)
VH: QVQLQQSGAELVKPGASVKLSCKASGNTFTSHWMHWVKQRPGQGLEWIGMSHPNSGSSNYSGKFKSKATLTVDRSSSTAYMQLNSLTSEDSAVYYCARTDYDYDGDYWGQGTTLTVSS
VL: DVVLTQTPLSLPVNIGDQASISCKSSKSLLNSDGLTYLDWYLQKPGQSPQLLIYLVSNRFSGVPDRFSGSGSGTDFTLKISRVEADDLGVYYCFQSNFLPLTFGAGTKLELK
notes: mouse hybridoma monoclonal antibody
Shift on Octet by Antibody in Solution (nm) [1]: < 0.05 nm | Shift on Octet by Antibody in Solution (nm) [2]: < 0.05 nm | Shift on Octet by Antibody in Solution (nm) [3]: < 0.05 nm | Kd [4]: 1.2 nM | Shift on Octet by Antibody in Solution (nm) [5]: < 0.05 nm | Shift on Octet by Antibody in Solution (nm) [6]: < 0.05 nm | Shift on Octet by Antibody in Solution (nm) [7]: < 0.05 nm | Shift on Octet by Antibody in Solution (nm) [8]: < 0.05 nm | Shift on Octet by Antibody in Solution (nm) [9]: < 0.05 nm | cAMP assay-1 IC50 [10]: 7.22 nM | Shift on Octet by Antibody in Solution (nm) [11]: < 0.05 nm | Shift on Octet by Antibody in Solution (nm) [12]: < 0.05 nm | Shift on Octet by Antibody in Solution (nm) [13]: < 0.05 nm | Shift on Octet by Antibody in Solution (nm) [14]: < 0.05 nm | Shift on Octet by Antibody in Solution (nm) [15]: < 0.05 nm | Shift on Octet by Antibody in Solution (nm) [16]: < 0.05 nm

B3: anti-GCGR antibody 3H5 (antibody, V domains shown)
VH: QVQLQQSGAELVKPGASVRLSCKASGNTFTNYWMHWVKQRPGQGLEWIGMIHPNSGSTHYNEKFKNKATLTVDKSSNTAYMQLSGLTSEDSAVYYCGATADYVMDYWGQGTSVTVSS
VL: B2 VL with V2I, S26T, L35F, Y54N, D75E, T77I, D86E
notes: mouse hybridoma monoclonal antibody; also called 3H-15
Shift on Octet by Antibody in Solution (nm) [1]: < 0.05 nm | Shift on Octet by Antibody in Solution (nm) [2]: < 0.05 nm | Shift on Octet by Antibody in Solution (nm) [3]: < 0.05 nm | Kd [4]: 2.2 nM | Shift on Octet by Antibody in Solution (nm) [5]: < 0.05 nm | Shift on Octet by Antibody in Solution (nm) [6]: < 0.05 nm | Shift on Octet by Antibody in Solution (nm) [7]: < 0.05 nm | Shift on Octet by Antibody in Solution (nm) [8]: < 0.05 nm | Shift on Octet by Antibody in Solution (nm) [9]: < 0.05 nm | cAMP assay-1 IC50 [10]: 24.6 nM | Shift on Octet by Antibody in Solution (nm) [11]: < 0.05 nm | Shift on Octet by Antibody in Solution (nm) [12]: < 0.05 nm | Shift on Octet by Antibody in Solution (nm) [13]: < 0.05 nm | Shift on Octet by Antibody in Solution (nm) [14]: < 0.05 nm | Shift on Octet by Antibody in Solution (nm) [15]: < 0.05 nm | Shift on Octet by Antibody in Solution (nm) [16]: < 0.05 nm
